Laboratory results reported in patent US20240116985A1, “STAPLED PEPTIDES AND METHODS THEREOF” (priority 2020, published 2024).
Starred links: 1 amine or outer side, 2 acyl side, 3 side chain; linkers in the order of their positions; H or OH if unused. Positions of bridges follow the written chain, without caps; N, C: chain ends. Non-standard residues stand in square brackets, D forms with d. Primed or numbered codes have the meaning given here. No end group written: not given here. *: point of attachment. PyrS2″ = (S)-3-amino-1-((pent-4-en-1-yloxy)carbonyl)pyrrolidine-3-carboxylic acid (stapling residue), C=CCCCOC(=O)N1CC[C@@](N[*:1])(C(=O)[*:2])C1; B5(30) = 2-amino-2-(pent-4-en-1-yl)hept-6-enoic acid (2,2-bis(4-pentenyl)glycine, stitching residue), C=CCCCC(CCCC=C)(N[*:1])C(=O)[*:2]; B5(4) = 2,2-bis(4-pentenyl)glycine = 2-amino-2-(pent-4-en-1-yl)hept-6-enoic acid (stitching residue), C=CCCCC(CCCC=C)(N[*:1])C(=O)[*:2]; B5(5) = 2,2-bis(4-pentenyl)glycine, 2-amino-2-(pent-4-en-1-yl)hept-6-enoic acid (stitching residue), C=CCCCC(CCCC=C)(N[*:1])C(=O)[*:2]; TfeGA = (S)-2-amino-3-((carboxymethyl)(2,2,2-trifluoroethyl)amino)propanoic acid, O=C([C@H](CN(CC(=O)[*:3])CC(F)(F)F)N[*:1])[*:2]; PyrS2 = (S)-3-amino-1-((pent-4-en-1-yloxy)carbonyl)pyrrolidine-3-carboxylic acid, C=CCCCOC(=O)N1CC[C@@](N[*:1])(C(=O)[*:2])C1; B5(3) = 2,2-bis(4-pentenyl)glycine (stitching residue), C=CCCCC(CCCC=C)(N[*:1])C(=O)[*:2]; B5 = 2-amino-2-(pent-4-en-1-yl)hept-6-enoic acid, C=CCCCC(CCCC=C)(N[*:1])C(=O)[*:2]; ProSAm3 = (allylsulfonyl)-D-proline, C=CCS(=O)(=O)N1CCC[C@@H]1C(=O)*; Phe(3-Ph) = N[C@@H](Cc1cccc(-c2ccccc2)c1)C(=O)O; Phe(3-COOH) = N[C@@H](Cc1cccc(C(=O)O)c1)C(=O)O; Phe(2-CF3) = N[C@@H](Cc1ccccc1C(F)(F)F)C(=O)O; Asp(3,3-Me2) = CC(C)(C(=O)O)[C@H](N)C(=O)O; Asp(3R-OH) = N[C@H](C(=O)O)[C@@H](O)C(=O)O; Phe(2-Cl) = N[C@@H](Cc1ccccc1Cl)C(=O)O; Phe(3-F) = N[C@@H](Cc1cccc(F)c1)C(=O)O; Phe(4-F) = N[C@@H](Cc1ccc(F)cc1)C(=O)O; Bta = N[C@@H](Cc1csc2ccccc12)C(=O)O; Lys(iPr) = CC(C)NCCCC[C@H](N)C(=O)O; αAllylPro = C=CC[C@@]1(C(=O)O)CCCN1; Azidoacetyl = [N-]=[N+]=NCC(=O)*; tBuAla = CC(C)(C)C[C@H](N)C(=O)O; 3Thi = N[C@@H](Cc1ccsc1)C(=O)O; 2F3MeF″ = Phe derivative; Ac3c = NC1(C(=O)O)CC1; ClAc = O=C(CCl)*

B1: I-1761 (peptide)
peptide: Ac-[αAllylPro]D[tBuAla][B5(5)]D[TfeGA][Lys(iPr)]AFL[PyrS2″][3Thi][Bta]F-NH2
modifications: staple 1-4, 4-11
B2: I-2263 (peptide)
peptide: Ac-[αAllylPro]D[tBuAla][B5(3)]D[Phe(3-COOH)]AAFL[PyrS2″][Phe(4-F)][Bta]A-NH2
modifications: staple 1-4, 4-11
B3: I-1764 (peptide)
peptide: Ac-[αAllylPro]D[tBuAla][B5(5)]D[TfeGA][Lys(iPr)]AFT[PyrS2″][3Thi][Bta]V-NH2
modifications: staple 1-4, 4-11
B4: I-2261 (peptide)
peptide: Ac-[αAllylPro]D[tBuAla][B5(3)]D[Phe(3-COOH)]AAFL[PyrS2″][Phe(3-F)][Bta]A-NH2
modifications: staple 1-4, 4-11
B5: I-1770 (peptide)
peptide: Ac-[αAllylPro]D[tBuAla][B5(5)]D[TfeGA][Lys(iPr)]AFT[PyrS2″][3Thi][Bta]V-NH2
modifications: staple 1-4, 4-11; also: -CH=CH- in each staple reduced to -CH2-CH2-
B6: I-2256 (peptide)
peptide: Ac-[αAllylPro]D[tBuAla][B5(3)]D[Phe(3-COOH)]AAFL[PyrS2″][Phe(3-Ph)][2F3MeF″]Q-NH2
modifications: staple 1-4, 4-11
B7: I-1763 (peptide)
peptide: Ac-[αAllylPro]D[tBuAla][B5(5)]D[TfeGA][Lys(iPr)]AFL[PyrS2″][3Thi][Bta]V-NH2
modifications: staple 1-4, 4-11
B8: I-1771 (peptide)
peptide: Ac-[αAllylPro]D[tBuAla][B5(4)][Asp(3,3-Me2)][TfeGA]AAFL[PyrS2″][3Thi][Bta]Q-NH2
modifications: staple 1-4, 4-11
B9: I-2266 (peptide)
peptide: [ProSAm3]D[tBuAla][B5(3)]D[TfeGA]AAFL[PyrS2″][3Thi][Bta]Q-NH2
modifications: staple (positions not given here); staple 4-11; not fully specified (bridges)
B10: I-1769 (peptide)
peptide: Ac-[αAllylPro]D[tBuAla][B5(4)]D[TfeGA][Lys(iPr)]AFL[PyrS2″][3Thi][Bta]V-NH2
modifications: staple 1-4, 4-11; also: -CH=CH- in each staple reduced to -CH2-CH2-
B11: I-1760 (peptide)
peptide: Ac-[αAllylPro]D[tBuAla][B5(5)]D[TfeGA][Lys(iPr)]AFT[PyrS2″][3Thi][Bta]L-NH2
modifications: staple 1-4, 4-11
B12: I-2389 (peptide)
peptide: Ac-[αAllylPro]D[tBuAla][B5(5)]D[Phe(3-COOH)]AAFL[PyrS2″][Phe(2-CF3)][Bta]QL[Ac3c]-NH2
modifications: staple 1-4, 4-11
B13: I-2258 (peptide)
peptide: Ac-[αAllylPro][Asp(3R-OH)][tBuAla][B5(3)]D[Phe(3-COOH)]AAFL[PyrS2″][3Thi][Bta]A-NH2
modifications: staple 1-4, 4-11
B14: I-1767 (peptide)
peptide: Ac-[αAllylPro]D[tBuAla][B5(4)]D[TfeGA][Lys(iPr)]AFL[PyrS2″][3Thi][Bta]F-NH2
modifications: staple 1-4, 4-11; also: -CH=CH- in each staple reduced to -CH2-CH2-
B15: I-2267 (peptide)
peptide: [ProSAm3]D[tBuAla][B5(3)]D[TfeGA]AAFL[PyrS2″][3Thi][Bta]Q-NH2
modifications: staple (positions not given here); staple 4-11; not fully specified (bridges); also: staple double bonds reduced to -CH2-CH2-
B16: I-1766 (peptide)
peptide: Ac-[αAllylPro]D[tBuAla][B5(4)]D[TfeGA][Lys(iPr)]AFT[PyrS2″][3Thi][Bta]L-NH2
modifications: staple 1-4, 4-11; also: -CH=CH- in each staple reduced to -CH2-CH2-
B17: I-1765 (peptide)
peptide: Ac-[αAllylPro]D[tBuAla][B5(4)]D[TfeGA][Lys(iPr)]AFL[PyrS2″][3Thi][Bta]L-NH2
modifications: staple 1-4, 4-11; also: -CH=CH- in each staple reduced to -CH2-CH2-
B18: I-2253 (peptide)
peptide: ClAc-[αAllylPro]D[tBuAla][B5(3)]D[Phe(3-COOH)]AAFL[PyrS2″][Phe(2-Cl)][Bta]A-NH2
modifications: staple 1-4, 4-11
B19: I-952 (peptide)
peptide: Ac-[αAllylPro]D[tBuAla][B5]D[TfeGA]AAFN[PyrS2][3Thi][Bta]Y-NH2
modifications: staple 1-4, 4-11; also: earlier-eluting staple isomer composition
B20: I-955 (peptide)
peptide: Ac-[αAllylPro]D[tBuAla][B5]D[TfeGA]AAFS[PyrS2][3Thi][Bta]S-NH2
modifications: staple 1-4, 4-11; also: later-eluting staple isomer composition
B21: I-953 (peptide)
peptide: Ac-[αAllylPro]D[tBuAla][B5]D[TfeGA]AAFN[PyrS2][3Thi][Bta]Y-NH2
modifications: staple 1-4, 4-11; also: later-eluting staple isomer composition
B22: I-956 (peptide)
peptide: Ac-[αAllylPro]D[tBuAla][B5]D[TfeGA]AAFT[PyrS2][3Thi][Bta]S-NH2
modifications: staple 1-4, 4-11; also: earlier-eluting staple isomer composition
B23: I-954 (peptide)
peptide: Ac-[αAllylPro]D[tBuAla][B5]D[TfeGA]AAFS[PyrS2][3Thi][Bta]S-NH2
modifications: staple 1-4, 4-11; also: earlier-eluting staple isomer composition
B24: I-878 (peptide)
peptide: Ac-[αAllylPro]D[tBuAla][B5(4)]DDAAFN[PyrS2″][3Thi][Bta]K(Azidoacetyl)-NH2
modifications: staple 1-4, 4-11
B25: I-1883 (peptide)
peptide: Ac-[αAllylPro]D[tBuAla][B5(30)]NTAAFR[PyrS2][3Thi][Bta]Q-NH2
modifications: staple 1-4, 4-11; also: later-eluting HPLC isomer
B26: I-1877 (peptide)
peptide: Ac-[αAllylPro]D[tBuAla][B5(5)]NTAAFN[PyrS2″][3Thi]WQ-NH2
modifications: staple 1-4, 4-11; also: separately listed staple isomer composition
B27: I-1878 (peptide)
peptide: Ac-[αAllylPro]D[tBuAla][B5(5)]NTAAFN[PyrS2″][3Thi][Bta]V-NH2
modifications: staple 1-4, 4-11; also: separately listed staple isomer composition
B28: I-1879 (peptide)
peptide: Ac-[αAllylPro]D[tBuAla][B5(30)]NTAAFN[PyrS2″][3Thi][Bta]V-NH2
modifications: staple 1-4, 4-11; also: later-eluting HPLC isomer
B29: I-879 (peptide)
peptide: Ac-[αAllylPro]D[tBuAla][B5(4)]DDK(Azidoacetyl)AFN[PyrS2″][3Thi][Bta]Q-NH2
modifications: staple 1-4, 4-11
B30: I-1876 (peptide)
peptide: Ac-[αAllylPro]D[tBuAla][B5(5)]NTAAFN[PyrS2″][3Thi]WQ-NH2
modifications: staple 1-4, 4-11; also: separately listed staple isomer composition
B31: I-1882 (peptide)
peptide: Ac-[αAllylPro]D[tBuAla][B5(30)]NTAAFR[PyrS2][3Thi][Bta]Q-NH2
modifications: staple 1-4, 4-11; also: earlier-eluting HPLC isomer
B32: I-880 (peptide)
peptide: Ac-[αAllylPro]DK(Azidoacetyl)[B5(4)]DDAAFN[PyrS2″][3Thi][Bta]Q-NH2
modifications: staple 1-4, 4-11
B33: I-1881 (peptide)
peptide: Ac-[αAllylPro]D[tBuAla][B5(30)]NTAAFN[PyrS2][3Thi][Bta]L-NH2
modifications: staple 1-4, 4-11; also: later-eluting HPLC isomer
B34: I-1880 (peptide)
peptide: Ac-[αAllylPro]D[tBuAla][B5(30)]NTAAFN[PyrS2][3Thi][Bta]L-NH2
modifications: staple 1-4, 4-11; also: earlier-eluting HPLC isomer

Biological target: full-length beta-Catenin (Uniprot ID P35222) (Homo sapiens (Human)) (UniProt P35222)
Test: fluorescence polarization competition; full-length beta-catenin, competitor 5FAM-TCF4(10-53)

| IC50 [nM] | Binder |
| --- | --- |
| 39 | B1 |
| 47 | B2 |
| 23 | B3 |
| 34 | B4 |
| 175 | B5 |
| 8410 | B6 |
| 52 | B7 |
| 209 | B8 |
| 266 | B9 |
| 419 | B10 |
| 32 | B11 |
| 72 | B12 |
| 272 | B13 |
| 327 | B14 |
| 499 | B15 |
| 267 | B16 |
| 667 | B17 |
| 189 | B18 |

Biological target: full-length beta-Catenin (Uniprot ID P35222) (Homo sapiens (Human)) (UniProt P35222)
Test: fluorescence polarization competition; 10 nM full-length beta-catenin + 10 nM 5FAM-TCF4(10-53) probe
Target sequence in this assay (P35222 whole entry): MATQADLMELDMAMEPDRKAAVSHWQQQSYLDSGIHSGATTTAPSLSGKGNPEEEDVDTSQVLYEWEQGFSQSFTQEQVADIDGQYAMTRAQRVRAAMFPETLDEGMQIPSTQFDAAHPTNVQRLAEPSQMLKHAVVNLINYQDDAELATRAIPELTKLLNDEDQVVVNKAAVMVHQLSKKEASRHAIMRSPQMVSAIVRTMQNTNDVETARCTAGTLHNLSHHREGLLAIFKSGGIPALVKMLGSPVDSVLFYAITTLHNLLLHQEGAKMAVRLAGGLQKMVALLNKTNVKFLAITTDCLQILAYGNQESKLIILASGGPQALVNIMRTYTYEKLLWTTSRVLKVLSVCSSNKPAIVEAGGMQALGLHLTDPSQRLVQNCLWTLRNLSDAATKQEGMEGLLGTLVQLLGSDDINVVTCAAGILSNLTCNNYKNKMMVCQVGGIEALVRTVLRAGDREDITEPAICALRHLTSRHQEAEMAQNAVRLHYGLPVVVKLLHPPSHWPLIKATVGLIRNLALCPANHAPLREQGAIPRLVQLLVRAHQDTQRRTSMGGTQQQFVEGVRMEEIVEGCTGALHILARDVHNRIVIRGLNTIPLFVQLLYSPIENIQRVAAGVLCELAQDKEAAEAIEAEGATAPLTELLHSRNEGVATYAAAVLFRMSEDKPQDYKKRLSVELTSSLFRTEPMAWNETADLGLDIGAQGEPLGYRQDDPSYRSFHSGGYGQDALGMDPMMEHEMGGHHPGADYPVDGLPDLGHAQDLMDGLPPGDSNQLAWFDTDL

| EC50 [nM] | Binder |
| --- | --- |
| 1210 | B19 |
| 1200 | B20 |
| 1460 | B21 |
| 1090 | B22 |
| 900 | B23 |

Biological target: full-length beta-Catenin (Uniprot ID P35222) (Homo sapiens (Human)) (UniProt P35222)
Test: fluorescence polarization competition vs 5FAM-TCF4(10-53) on full-length beta-catenin

| IC50 [nM] | EC50 [nM] | Binder |
| --- | --- | --- |
| 1210 |  | B19 |
|  | 6 | B24 |
| 884 |  | B25 |
| 1520 |  | B26 |
| 458 |  | B27 |
| 1200 |  | B20 |
| 1460 |  | B21 |
| 1090 |  | B22 |
| 567 |  | B28 |
|  | 6 | B29 |
| 1340 |  | B30 |
| 397 |  | B31 |
| 900 |  | B23 |
|  | 6 | B32 |
| 743 |  | B33 |
| 868 |  | B34 |
